Results from patent publication US20050171016A1.

Molecular target: CD36 receptor on human dermal microvascular endothelial cells (HDMEC) (human) (UniProt P16671)
Test: cell-based or functional assay

Sequence of UniProt P16671 (P16671 2-472): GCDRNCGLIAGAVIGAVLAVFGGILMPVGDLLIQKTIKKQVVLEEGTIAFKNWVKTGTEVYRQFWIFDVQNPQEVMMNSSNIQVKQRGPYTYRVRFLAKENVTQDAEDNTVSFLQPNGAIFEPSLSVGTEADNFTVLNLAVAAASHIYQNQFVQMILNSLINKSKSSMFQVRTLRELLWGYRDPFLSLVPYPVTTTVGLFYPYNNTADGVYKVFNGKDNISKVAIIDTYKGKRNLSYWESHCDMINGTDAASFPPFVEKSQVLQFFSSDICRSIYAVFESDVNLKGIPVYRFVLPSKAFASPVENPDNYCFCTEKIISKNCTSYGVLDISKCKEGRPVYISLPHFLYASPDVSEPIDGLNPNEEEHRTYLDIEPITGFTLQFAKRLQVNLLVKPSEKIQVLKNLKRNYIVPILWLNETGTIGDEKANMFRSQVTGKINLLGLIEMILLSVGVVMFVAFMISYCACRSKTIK

| inhibition of HDMEC migration (Transwell, 10 ug/ml TSP-1) [%] | inhibition of HDMEC migration in the presence of 10 ug/ml anti-CD36 antibody (clone FA6-152) [%] | inhibition of HDMEC migration (Transwell, TSP-2 conditioned medium) [%] | Substance |
| --- | --- | --- | --- |
| 54 | 20.8 | – | human thrombospondin-1 (TSP-1) (from UniProt P07996 19-1170) |
| – | 36.1 | 54.2 | mouse thrombospondin-2 (TSP-2) (from UniProt Q03350 19-1172) |
